First the molecules themselves.
B1: ZNF263 (parent)
chain: CSECGESFSRSSRLMSHQRTHTG

Protein stability index data for 97 variants are collected here from the supplement of paper PMC10567573.
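Further: lentivirally expressed fusions sorted by FACS into six bins by GFP to DsRed ratio, PSI derived from sequencing read proportions per bin multiplied by bin number.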

The variants in this series derive from B1. The experiment in a line: protein stability index of a GFP-peptide fusion (GPS, HEK-293T) (PSI 1-6); higher = more stable. Particulars: c terminus: native.
In the case of CSECGESFSRTSRLMSHQRTHTG [S11T], the protein stability index was found to be 2.54.

CSECGESFSRVSRLMSHQRTHTG [S11V]: the protein stability index worked out at 4.71.

Turning to CSECGESFSRRSRLMSHQRTHTG [S11R], the protein stability index is 2.31.

Turning to CSECGESFSRYSRLMSHQRTHTG [S11Y], the protein stability index was found to be 3.67.

As to CSECGESFSRSSRLMSHQRTHTN [G23N], the protein stability index was 4.85.

For CSECGESFSRSSRLMSHQRTHTC [G23C], the protein stability index was found to be 3.33.

As to CSECGESFSRSSRLMSHQRTHTI [G23I], the protein stability index came to 4.41.

CSECGESFSRSSRLMSHQRTHTK [G23K]: the protein stability index worked out at 4.89.

Take CSECGESFSRSSRLMSHQRTHTE [G23E]: the protein stability index came to 4.44.

On to CSECGESFSRSSRLMSHQRTHTA [G23A], for which the protein stability index was found to be 2.97.

In the case of CSECGESFSRSSRLMSHQRTHTF [G23F], the protein stability index turned out to be 3.74.

Turning to CSECGESFSRSSRLMSHQRTHTM [G23M], the protein stability index amounted to 4.34.

With CSECGESFSRSSRLMSHQRTHTH [G23H], the protein stability index amounted to 3.59.

Regarding CSECGESFSRSSRLMSHQRTHTL [G23L], the protein stability index came out at 4.69.

With CSECGESFSRSSRLMSHCRTHTG [Q18C], the protein stability index stood at 2.5.

Regarding CSECGESFSRSSRLMSHKRTHTG [Q18K], the protein stability index came out at 2.22.

In the case of CSECGESFSRSSRLMSHWRTHTG [Q18W], the protein stability index worked out at 2.77.

CSECGESFSRSSRLMSHHRTHTG [Q18H]: the protein stability index was 2.57.

Turning to CSECGESFSRSSRLMSHIRTHTG [Q18I], the protein stability index amounted to 3.21.

As for CSECGESFSRSSRLMSHSRTHTG [Q18S], the protein stability index was determined as 2.13.

On to CSECGESFSRSSRLMSHYRTHTG [Q18Y], for which the protein stability index stood at 2.39.

In the case of CSECGESFSRSSRLMSHNRTHTG [Q18N], the protein stability index turned out to be 2.16.

Consider CSECGESFSRSSRLMSHGRTHTG [Q18G], for which the protein stability index stood at 2.49.

Consider CSECGESFSRSSRLMSHMRTHTG [Q18M], for which the protein stability index turned out to be 4.32.

Take CSECGESFSRSSRLMSHARTHTG [Q18A]: the protein stability index is 2.48.

For the variant CSECGESFSRSSRLMSHERTHTG [Q18E], the protein stability index was 2.76.

Consider CSECGESFSRSSRLMSHLRTHTG [Q18L], for which the protein stability index stood at 3.02.

In the case of CSECGESFSRSSRLMSHRRTHTG [Q18R], the protein stability index was 1.89.

Take CSECGESFSRSSRLMSHTRTHTG [Q18T]: the protein stability index was 2.24.

Take CSECGESFSRSSRLMSHFRTHTG [Q18F]: the protein stability index was found to be 2.38.

On to CSECGESFSRSSRLMSHDRTHTG [Q18D], for which the protein stability index was found to be 2.58.

Consider CSECGESFSRSSRLMSHPRTHTG [Q18P], for which the protein stability index is 2.22.

Take CSECGESFSRSSRLMSHQFTHTG [R19F]: the protein stability index was found to be 3.55.

Regarding CSECGESFSRSSRLMSHQTTHTG [R19T], the protein stability index amounted to 3.76.

For the variant CSECGESFSRSSRLMSHQETHTG [R19E], the protein stability index was determined as 3.78.

In the case of CSECGESFSRSSRLMSHQYTHTG [R19Y], the protein stability index is 3.63.

For the variant CSECGESFSRSSRLMSHQLTHTG [R19L], the protein stability index was found to be 3.49.

Consider CSECGESFSRSSRLMSHQPTHTG [R19P], for which the protein stability index amounted to 2.44.

As for CSECGESFSRSSRLMSHQHTHTG [R19H], the protein stability index came out at 4.51.

Regarding CSECGESFSRSSRLMSHQNTHTG [R19N], the protein stability index was 4.11.

For CSECGESFSRSSRLMSHQSTHTG [R19S], the protein stability index turned out to be 3.46.

Regarding CSECGESFSRSSRLMSHQQTHTG [R19Q], the protein stability index was 3.63.

Take CSECGESFSRSSRLMSHQVTHTG [R19V]: the protein stability index was found to be 2.73.

Regarding CSECGESFSRSSRLMSHQMTHTG [R19M], the protein stability index worked out at 3.43.

As to CSECGESFSRSSRLMSHQKTHTG [R19K], the protein stability index was found to be 5.13.

Consider CSECGESFSRSSRLMSHQITHTG [R19I], for which the protein stability index is 2.58.

For CSECGESFSRSSRLMSHQWTHTG [R19W], the protein stability index worked out at 3.17.

Turning to CSECGESFSRSSRLMSHQATHTG [R19A], the protein stability index is 4.1.

With CSECGESFSRSSRLMSHQCTHTG [R19C], the protein stability index was determined as 5.

With CSECGESFSRSSRLMSHQDTHTG [R19D], the protein stability index was determined as 4.39.

For CSECGESFSRSSKLMSHQRTHTG [R13K], the protein stability index worked out at 4.19.

CSECGESFSRSSSLMSHQRTHTG [R13S]: the protein stability index was 4.84.

With CSECGESFSRSSQLMSHQRTHTG [R13Q], the protein stability index came out at 4.66.

Take CSECGESFSRSSNLMSHQRTHTG [R13N]: the protein stability index was determined as 4.26.

As to CSECGESFSRSSGLMSHQRTHTG [R13G], the protein stability index was found to be 3.3.

Turning to CSECGESFSRSSDLMSHQRTHTG [R13D], the protein stability index came to 5.63.

Consider CSECGESFSRSSCLMSHQRTHTG [R13C], for which the protein stability index was determined as 4.52.

CSECGESFSRSSPLMSHQRTHTG [R13P]: the protein stability index turned out to be 2.43.

Take CSECGESFSRSSMLMSHQRTHTG [R13M]: the protein stability index was 4.03.

With CSECGESFSRSSLLMSHQRTHTG [R13L], the protein stability index was 4.84.

Consider CSECGESFSRSSELMSHQRTHTG [R13E], for which the protein stability index came out at 5.6.

Regarding CSECGESFSRSSYLMSHQRTHTG [R13Y], the protein stability index turned out to be 3.6.

For the variant CSECGESFSRSSVLMSHQRTHTG [R13V], the protein stability index was determined as 4.14.

With CSECGESFSRSSILMSHQRTHTG [R13I], the protein stability index is 3.96.

In the case of CSECGESFSRSSTLMSHQRTHTG [R13T], the protein stability index worked out at 4.34.

As for CSECGESFSRSSWLMSHQRTHTG [R13W], the protein stability index is 2.56.

Regarding CSECGESFSRSSHLMSHQRTHTG [R13H], the protein stability index was found to be 4.79.

With CSECGESFSRSSFLMSHQRTHTG [R13F], the protein stability index worked out at 3.48.

For the variant CSECGESFSRSSALMSHQRTHTG [R13A], the protein stability index is 4.91.

As to CSECGESFSRSSRLMSKQRTHTG [H17K], the protein stability index came out at 2.76.

Regarding CSECGESFSRSSRLMSEQRTHTG [H17E], the protein stability index came to 2.38.

As to CSECGESFSRSSRLMSQQRTHTG [H17Q], the protein stability index amounted to 2.04.

For the variant CSECGESFSRSSRLMSSQRTHTG [H17S], the protein stability index is 1.51.

Take CSECGESFSRSSRLMSCQRTHTG [H17C]: the protein stability index stood at 2.42.

Consider CSECGESFSRSSRLMSTQRTHTG [H17T], for which the protein stability index amounted to 1.46.

CSECGESFSRSSRLMSYQRTHTG [H17Y]: the protein stability index worked out at 1.76.

As for CSECGESFSRSSRLMSAQRTHTG [H17A], the protein stability index came to 1.44.

Take CSECGESFSRSSRLMSFQRTHTG [H17F]: the protein stability index came out at 2.73.

In the case of CSECGESFSRSSRLMSIQRTHTG [H17I], the protein stability index came to 3.2.

Turning to CSECGESFSRSSRLMSWQRTHTG [H17W], the protein stability index came out at 3.17.

Consider CSECGESFSRSSRLMSNQRTHTG [H17N], for which the protein stability index was determined as 1.57.

Turning to CSECGESFSRSSRLMSDQRTHTG [H17D], the protein stability index worked out at 2.52.

In the case of CSECGESFSRSSRLMSLQRTHTG [H17L], the protein stability index was determined as 1.38.

For CSECGESFSRSSRLMSPQRTHTG [H17P], the protein stability index stood at 1.11.

Take CSECGESFSRSSRLMSHQRFHTG [T20F]: the protein stability index came to 2.48.

Regarding CSECGESFSRSSRLMSHQRDHTG [T20D], the protein stability index amounted to 3.75.

Turning to CSECGESFSRSSRLMSHQRKHTG [T20K], the protein stability index was 3.72.

In the case of CSECGESFSRSSRLMSHQRMHTG [T20M], the protein stability index is 1.95.

Consider CSECGESFSRSSRLMSHQREHTG [T20E], for which the protein stability index amounted to 2.45.

Regarding CSECGESFSRSSRLMSHQRVHTG [T20V], the protein stability index was 2.9.

On to CSECGESFSRSSRLMSHQRQHTG [T20Q], for which the protein stability index is 3.26.

On to CSECGESFSRSSRLMSHQRIHTG [T20I], for which the protein stability index was found to be 4.43.

For CSECGESFSRSSRLMSHQRYHTG [T20Y], the protein stability index was determined as 2.08.

CSECGESFSRSSRLMSHQRNHTG [T20N]: the protein stability index was 1.93.

For CSECGESFSRSSRLMSHQRSHTG [T20S], the protein stability index stood at 2.44.

For CSECGESFSRSSRLMSHQRWHTG [T20W], the protein stability index came out at 1.92.

For CSECGESFSRSSRLMSHQRAHTG [T20A], the protein stability index was found to be 3.7.
